Measured values published in patent US20140255415A1 (Novartis, published 2014).

Assays:
[1] = biological target: human LINGO-1 expressed on CHO-K1 cells (CHO-K1-hLINGO-1) (human) (UniProt Q96FE5); experiment: apparent KD, FACS saturation binding on CHO-K1-hLINGO-1 cells, IgG4, with 50% human cerebro-spinal fluid
[2] = biological target: human LINGO-1 expressed on CHO-K1 cells (CHO-K1-hLINGO-1) (human) (UniProt Q96FE5); experiment: ratio of apparent KDs, FACS saturation binding on CHO-K1-hLINGO-1 cells, IgG4, without against with 50% human CSF
[3] = biological target: T1, cynomolgus monkey LINGO-1 expressed on CHO-K1 cells (CHO-K1-cmLINGO-1) (cynomolgus monkey, UniProt Q9N008 34-614); experiment: apparent KD, FACS saturation binding on CHO-K1-cmLINGO-1 cells, IgG4 format
T1 construct: range 34-614; also called Cynomolgus LINGO-1; not shown: 2 amino acid residue linker
T1 sequence (looked up): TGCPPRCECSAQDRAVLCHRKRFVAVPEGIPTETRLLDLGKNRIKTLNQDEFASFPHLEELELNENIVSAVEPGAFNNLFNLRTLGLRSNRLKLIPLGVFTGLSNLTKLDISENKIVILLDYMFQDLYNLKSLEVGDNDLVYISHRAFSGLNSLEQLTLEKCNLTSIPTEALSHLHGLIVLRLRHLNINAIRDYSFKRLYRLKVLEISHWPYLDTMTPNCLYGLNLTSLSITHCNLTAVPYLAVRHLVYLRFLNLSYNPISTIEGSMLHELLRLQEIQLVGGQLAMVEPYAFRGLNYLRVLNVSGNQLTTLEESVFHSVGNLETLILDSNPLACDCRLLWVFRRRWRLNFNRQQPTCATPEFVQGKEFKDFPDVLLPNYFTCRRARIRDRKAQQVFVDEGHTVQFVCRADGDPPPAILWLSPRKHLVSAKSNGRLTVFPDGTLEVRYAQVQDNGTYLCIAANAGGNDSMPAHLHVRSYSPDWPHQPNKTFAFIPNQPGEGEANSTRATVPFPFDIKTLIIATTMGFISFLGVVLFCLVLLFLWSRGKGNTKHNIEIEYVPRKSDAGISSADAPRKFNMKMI
Protocol: (§1) Cell based affinity of anti-LINGO-1 specific antibodies is determined by FACS saturation binding experiments. The determination of the apparent KD values is carried out identical to the procedure described above using anti-LINGO-1 Fab antibodies.
(§2) In detail, CHO-K1-hLINGO-1, CHO-K1-cmLINGO-1 or CHO-K1-rLINGO-1 are detached from culture flasks by versene, washed with FACS buffer and resuspended in FACS buffer. Purified anti-LINGO-1 IgG4s are serially diluted in FACS buffer and spread into round bottom 96-well microtiter plates (NUNC™, Wiesbaden, Germany). For each concentration, duplicate wells are incubated with 1.25×10⁴ cells for 30-60 min on ice in a total volume of 100 μl. […] Using this assay the following apparent KD values can be determined (Table 3).

[4] = biological target: human LINGO-1 expressed on CHO-K1 cells (CHO-K1-hLINGO-1) (human) (UniProt Q96FE5); experiment: apparent KD, FACS saturation binding on CHO-K1-hLINGO-1 cells, IgG4 pre-incubated in FACS buffer + 2.6% BSA
[5] = biological target: T2, human LINGO-2 expressed on CHO-K1 cells (CHO-K1-hLINGO-2) (human, UniProt Q7L985 26-606); experiment: apparent KD, FACS saturation binding on CHO-K1-hLINGO-2 cells, IgG4 format
T2 construct: range 26-606; not shown: 2 amino acid residue linker
T2 sequence (looked up): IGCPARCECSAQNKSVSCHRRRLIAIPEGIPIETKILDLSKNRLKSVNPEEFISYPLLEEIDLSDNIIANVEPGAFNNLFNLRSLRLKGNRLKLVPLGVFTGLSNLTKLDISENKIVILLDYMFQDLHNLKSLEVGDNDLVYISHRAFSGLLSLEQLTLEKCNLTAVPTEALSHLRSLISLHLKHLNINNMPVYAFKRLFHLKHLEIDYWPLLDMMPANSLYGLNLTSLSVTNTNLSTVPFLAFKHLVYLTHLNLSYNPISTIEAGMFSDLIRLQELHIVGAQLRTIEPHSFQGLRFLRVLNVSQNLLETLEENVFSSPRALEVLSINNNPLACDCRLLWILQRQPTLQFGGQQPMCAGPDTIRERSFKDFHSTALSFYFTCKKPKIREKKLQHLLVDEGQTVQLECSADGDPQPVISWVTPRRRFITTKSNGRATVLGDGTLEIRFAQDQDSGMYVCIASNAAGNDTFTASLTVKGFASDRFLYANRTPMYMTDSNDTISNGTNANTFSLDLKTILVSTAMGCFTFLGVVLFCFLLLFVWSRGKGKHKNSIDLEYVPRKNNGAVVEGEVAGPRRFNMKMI

[6] = biological target: T3, rat LINGO-1 expressed on CHO-K1 cells (CHO-K1-rLINGO-1) (rat, UniProt A0A8I5ZPI2 34-614); experiment: apparent KD, FACS saturation binding on CHO-K1-rLINGO-1 cells, IgG4 format
T3 construct: range 34-614; not shown: 2 amino acid residue linker
T3 sequence: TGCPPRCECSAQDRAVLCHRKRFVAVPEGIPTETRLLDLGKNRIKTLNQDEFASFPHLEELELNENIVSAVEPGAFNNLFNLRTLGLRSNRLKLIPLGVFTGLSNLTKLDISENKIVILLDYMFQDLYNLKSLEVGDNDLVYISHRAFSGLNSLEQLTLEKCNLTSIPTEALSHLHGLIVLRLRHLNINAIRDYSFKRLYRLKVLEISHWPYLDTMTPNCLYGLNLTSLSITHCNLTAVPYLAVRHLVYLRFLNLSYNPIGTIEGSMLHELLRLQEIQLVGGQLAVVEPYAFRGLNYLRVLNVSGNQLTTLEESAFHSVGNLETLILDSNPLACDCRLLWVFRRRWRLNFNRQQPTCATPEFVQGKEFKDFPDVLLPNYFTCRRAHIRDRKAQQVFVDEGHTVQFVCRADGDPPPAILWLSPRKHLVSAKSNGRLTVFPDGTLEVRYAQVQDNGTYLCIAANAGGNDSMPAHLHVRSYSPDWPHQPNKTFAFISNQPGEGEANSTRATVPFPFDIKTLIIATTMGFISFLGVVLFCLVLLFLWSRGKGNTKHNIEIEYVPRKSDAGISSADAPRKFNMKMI
Protocol: as §1, §2

[7] = biological target: human LINGO-1 expressed on CHO-K1 cells (CHO-K1-hLINGO-1) (human) (UniProt Q96FE5); experiment: apparent KD, FACS saturation binding on CHO-K1-hLINGO-1 cells, IgG4 pre-incubated in FACS buffer
[8] = biological target: human LINGO-1 expressed on CHO-K1 cells (CHO-K1-hLINGO-1) (human) (UniProt Q96FE5); experiment: apparent KD, FACS saturation binding on CHO-K1-hLINGO-1 cells, IgG4 pre-incubated in FACS buffer + 50% human serum
[9] = biological target: human LINGO-1 expressed on CHO-K1 cells (CHO-K1-hLINGO-1) (human) (UniProt Q96FE5); experiment: apparent KD, FACS saturation binding on CHO-K1-hLINGO-1 cells, IgG4, without 50% human cerebro-spinal fluid (control)
[10] = biological target: human LINGO-1 expressed on CHO-K1 cells (CHO-K1-hLINGO-1) (human) (UniProt Q96FE5); experiment: apparent KD, FACS saturation binding on CHO-K1-hLINGO-1 cells, IgG4 format

Kd [1]: 0.25 nM
App. KD ratio w/o CSF:w/ CSF [2]: 0.76
Kd [3]: 0.18 nM
Kd [4]: 0.05 nM
Kd [5]: 0.95 nM
Kd [6]: 0.07 nM
Kd [7]: 0.08 nM
Kd [8]: 0.06 nM
Kd [9]: 0.19 nM
Kd [10]: 0.07 nM
B1: anti-LINGO-1 IgG4 antibody 4785 (antibody, V domains shown)
VH: QVQLQQSGPGLVKPSQTLSLTCAISGDSVSDNSAAWSWIRQSPGRGLEWLGLIYLRSKWDNDYAVSVKSRITINPDTSKNQFSLQLNSVTPEDTAVYYCARTGRADEFDVWGQGTLVTVSS
VL: DIVLTQPPSVSGAPGQRVTISCSGSSSNIGNNYVSWYQQLPGTAPKLLISRNSKRPSGVPDRFSGSKSGTSASLAITGLQSEDEADYYCSTYDTFSIVFGGGTKLTVLG
